Ends that are not written are not given here. * marks the point of attachment. GlcNAc2 = N-linked chitobiose, CC(=O)N[C@@H]1[C@@H](O)[C@H](O[C@@H]2O[C@H](CO)[C@@H](O)[C@H](O)[C@H]2NC(C)=O)[C@@H](CO)O[C@H]1*
T1: MUC16 unrelated peptide 18mer+GlcNAc2 (also: GlcNAc2 (chitobiose), site not given here)
T1 construct: Negative control glycopeptide; also called unrelated chitobiose-linked peptide
T1 peptide: GAVPRSATINVSRIATGP

T2: MUC16 unrelated peptide 18mer
T2 construct: Negative control peptide without glycan
T2 peptide: GAVPRSATINVSRIATGP

T3: MUC16 nonglycosylated peptide 2 (human)
T3 construct: Peptide used to elicit the 4H11 antibody; also called nonglycosylated MUC16 peptide 2
T3 peptide: CTLDRSSVLVDGYSPNRNE

T4: MUC16 18mer + GlcNAc1 (also: N-linked single GlcNAc, Asn (N4, N10 or both) not given here)
T4 construct: also called 18-mer with a single GlcNAc
T4 peptide: CTRNGTQLQNFTLDRSSV

T5: MUC16 18mer + GlcNAc2-FUCOSE1 (also: N-linked GlcNAc2Fuc (fucosylated chitobiose), Asn site not given here)
T5 construct: also called 18-mer with fucosylated chitobiose (GlcNAc2Fuc)
T5 peptide: CTRNGTQLQNFTLDRSSV

T6: MUC16^c114 (human, capable of N-glycosylation at Asn1, Asn24 and Asn30 ; chain 1 pos 1, 24, 30: Asn capable of N-glycosylation on the transfected cells, written N)
T6 construct: The forward primer adds Met-Val before Asn1; also called MUC16^c114-GFP; SKOV3 MUC16^c114; not shown: hrGFP of the phrGFP II-C vector fused at the cytoplasmic carboxy-terminus, with its short cloning linker
T6 chain: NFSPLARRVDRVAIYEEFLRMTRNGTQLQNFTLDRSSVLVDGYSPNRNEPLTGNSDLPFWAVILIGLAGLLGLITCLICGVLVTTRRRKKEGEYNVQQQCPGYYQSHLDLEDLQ

T7: non-glycosylated 15-mer MUC16 peptide (human)
T7 construct: Same peptide as the GlcNAc2-15-mer without the glycan; also called unglycosylated 15-mer
T7 peptide: CGTQLQNFTLDRSSV

T8: GlcNAc2-15-mer glycopeptide, unconjugated (human)
T8 construct: Cys plus G25-V38 of MUC16^c114; Used in ELISA without KLH; also called 15-mer(chitobiose)[C-G25-V38]; 15mer-chitobiose peptide
T8 peptide: Ac-CGTQLQN(GlcNAc2)FTLDRSSV-NH2

T9: MUC16 18mer (not fully specified)
T9 construct: also called non-glycosylated 18-mer MUC16 peptide
T9 peptide: CTRNGTQLQNFTLDRSSV

T10: biotinylated chitobiose-conjugated 18-mer glycopeptide (human, also: biotinylated, site not given here)
T10 construct: Cys plus T22-V38 of MUC16^c114; The range is derived from T22-V38 and the statement that c114 is 1777-1890; the N-terminal Cys is added; also called (GlcNAc2)2-18-mer, biotinylated; 18-mer(chitobiose)2[C-T22-V38]
T10 peptide: Ac-CTRN(GlcNAc2)GTQLQN(GlcNAc2)FTLDRSSV-NH2

T11: MUC16^c114 on SKOV3 cells with MGAT5 knock-down (human, N-glycans without MGAT5-dependent tetra-antennary branching ; chain 1 pos 1, 24 and 30: N-glycosylated Asn, written N; the glycans lack MGAT5-dependent tetra-antennary branching (shRNA knock-down))
T11 construct: Same polypeptide as MUC16^c114, other glycoform (shRNA against MGAT5); also called SKOV3-shMGAT5-c114; MUC16^c114-shMGAT5; not shown: hrGFP of the phrGFP II-C vector, fused at the cytoplasmic carboxy-terminus
T11 chain: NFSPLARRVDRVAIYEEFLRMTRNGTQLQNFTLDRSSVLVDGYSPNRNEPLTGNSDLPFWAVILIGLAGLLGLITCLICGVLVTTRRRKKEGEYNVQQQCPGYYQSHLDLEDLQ

T12: (GlcNAc2)2-18-mer glycopeptide, unconjugated (human)
T12 construct: Used in ELISA without KLH; also called 18-mer(chitobiose)2[C-T22-V38]; 18mer-chitobiose peptide
T12 peptide: Ac-CTRN(GlcNAc2)GTQLQN(GlcNAc2)FTLDRSSV-NH2

T13: MUC16^c114-N2 (human, chain 1 pos 1 and pos 30: N-glycosylated Asn (cell-made glycans), written N)
T13 construct: MUC16^c114 with Asn24 (Asn1800) changed to Ala, on SKOV3 cells; also called N24 mut c114; SKOV3-N24 mutc114; not shown: hrGFP of the phrGFP II-C vector, fused at the cytoplasmic carboxy-terminus
T13 chain: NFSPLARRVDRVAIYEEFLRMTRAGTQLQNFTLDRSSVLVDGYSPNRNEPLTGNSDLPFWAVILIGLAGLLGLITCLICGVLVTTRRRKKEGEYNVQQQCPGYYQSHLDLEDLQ


Experiments:
[1] = molecular target: T1, MUC16 unrelated peptide 18mer+GlcNAc2; assay: sandwich ELISA
[2] = molecular target: T2, MUC16 unrelated peptide 18mer; assay: sandwich ELISA
[3] = molecular target: T3, MUC16 nonglycosylated peptide 2; assay: sandwich ELISA
MUC16 18mer + GlcNAc1 = molecular target: T4, MUC16 18mer + GlcNAc1; assay: sandwich ELISA on 'MUC16 18mer + GlcNAc1'; Blank 0.042
[4] = molecular target: T5, MUC16 18mer + GlcNAc2-FUCOSE1; assay: sandwich ELISA on 'MUC16 18mer + GlcNAc2-FUCOSE1'; Blank 0.044
[5] = molecular target: T1, MUC16 unrelated peptide 18mer+GlcNAc2; assay: sandwich ELISA on 'MUC16 unrelated 18mer + GlcNAc2'; Blank 0.014
MUC16^c114 = molecular target: T6, MUC16^c114; assay: FACS, SKOV3-c114
[6] = molecular target: T7, non-glycosylated 15-mer MUC16 peptide; assay: sandwich ELISA on 'MUC16 15mer'; Blank 0.021
[7] = molecular target: T7, non-glycosylated 15-mer MUC16 peptide; assay: ELISA 12/24/13 (sups from time of freezing), dilution 400, column 15
[8] = molecular target: T3, MUC16 nonglycosylated peptide 2; assay: sandwich ELISA on 'MUC16 Nonglycosylated Peptide2'; Blank 0.029
[9] = molecular target: T8, GlcNAc2-15-mer glycopeptide, …; assay: ELISA 12/24/13 (sups from time of freezing), dilution 400, column 15S
[10] = molecular target: T8, GlcNAc2-15-mer glycopeptide, …; assay: sandwich ELISA on 'MUC16 15mer + GlcNAc2'; Blank 0.019
MUC16 18mer = molecular target: T9, MUC16 18mer; assay: sandwich ELISA on 'MUC16 18mer'; Blank 0.032
[11] = molecular target: T10, biotinylated chitobiose-conjugated …; assay: binding affinity table of Example 3; target not named there, taken as in Table 9 (Octet BLI, biotinylated chitobiose 18-mer)
In short: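 Binding was measured by biolayer interferometry on a ForteBio Octet QK, with 5 μg/mL biotinylated chitobiose-conjugated 18-mer glycopeptide loaded onto streptavidin biosensors. Excess antigen was washed off, and mouse antibodies were run at 10 μg/mL for association and dissociation steps. Kd, kon and koff came from a 1:1 binding site model with partial fit.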

[12] = molecular target: T11, MUC16^c114 on SKOV3 cells with MGAT5 …; assay: FACS, SKOV3-shMGAT5-c114
[13] = molecular target: T12, (GlcNAc2)2-18-mer glycopeptide, …; assay: ELISA during fusion screen, dilution 400, column 18S
[14] = molecular target: T12, (GlcNAc2)2-18-mer glycopeptide, …; assay: ELISA 12/24/13 (sups from time of freezing), dilution 400, column 18S
MUC16^c114-N2 = molecular target: T13, MUC16^c114-N2; assay: FACS, SKOV3-N24 mutc114

Row | binding result [1] | binding result [2] | binding result [3] | ELISA signal (MUC16 18mer + GlcNAc1) | ELISA signal [4] | ELISA signal [5] | geometric mean phycoerythrin (PE) fluorescence (MUC16^c114) | ELISA signal [6] | ELISA signal [7] | ELISA signal [8] | ELISA signal [9] | ELISA signal [10] | ELISA signal (MUC16 18mer) | Kd [11] [nM] | koff [11] [s⁻¹] | geometric mean phycoerythrin (PE) fluorescence [12] | ELISA signal [13] | ELISA signal [14] | geometric mean phycoerythrin (PE) fluorescence (MUC16^c114-N2) | kon [11] [M⁻¹ s⁻¹] | Binder
1 | no binding | no binding | no binding | 0.95 | 1.03 | 0.02 | 2050 | 1.06 | 0.44 | 0.02 | 0.14 | 1.44 | 1.01 | 11.1 | 0.000678 | 855 | 0.64 | 0.55 | 1830 | – | 18C6.D12 (antibody, V domains shown, Mouse monoclonal from a hybridoma; also called MUC16 Glycosylation Antibody 18C6) VH: QVTLKESGPGILQPSQTLSLTCSFSGFSLSTVGMGVGWSRQPSGKGLEWLAHIWWDDEDKYYNPALKSRLTISKDTSKNQVFLKIANVDTADTATYYCTRIGTAQATDALDYWGQGTSVTVSS VL: DIVMTQAAPSVPVTPGESVSISCRSSKSLLHSNGNTYLYWFLQRPGQSPQRLIYYMSNLASGVPDRFSGRGSGTDFTLRISRVEAEDVGVYYCMQSLEYPLTFGGGTKLEIK
2 | no binding | no binding | no binding | 0.96 | 1.01 | 0.03 | 617 | 1.17 | 0.3 | 0.03 | 0.1 | 1.51 | 0.98 | 63.7 | 0.00242 | 525 | 0.47 | 0.36 | 486 | 38000 | 19C11.H6 (antibody, V domains shown, Mouse monoclonal from a hybridoma; Used as 89Zr-DFO-labelled antibody in the internalization assay; also called MUC16 Glycosylation Antibody 19C11) VH: QVNLKESGPGKLQPSQTLSLTCSFSGFSLSTLGMGVGWIRQSSGKGLEWLAHIWWDDDKYYNPALKSRLTISRATSKNQVFLKIVNVGTADTATYYCARIGTAQATDALDYWGQGTSVTVSS VL: DIVMTQAAPSIPVTPGESVSISCRSSKSLLHSNGNTYLYWFLQRPGQSPQRLIYYMSNLASGVPDRFSGRGSGTDFTLKISRVEAGDVGVYYCMQGLEHPLTFGGGTKLEIK
3 | no binding | no binding | no binding | 1.03 | 1.1 | 0.03 | 492 | 1.21 | 0.44 | 0.02 | 0.25 | 1.32 | 1.09 | 13.8 | 0.00104 | 289 | 0.92 | 0.51 | 471 | – | 7B12.B3 (antibody, V domains shown, Mouse monoclonal from a hybridoma; also called MUC16 Glycosylation Antibody 7B12) VH: QVTLKESGPGILQPSQTLSLTCSFSGFSLSTVGMGVGWSRQPSGKGLEWLAHIWWDDEDKYYNPALKSRLTISKDTSKNQVFLKIANVDTADSATYYCTRIGTAQATDALDYWGQGTSVTVSS VL: DIVMTQAAPSVSVTPGESVSISCRSSKSLRKSNGNTYLYWFLQRPGQSPQRLIYYMSNLASGVPDRFSGRGSGTDFTLRISRVEAEDVGVYYCMQSLEYPLTFGGGTKLKIK
